Test results published in patent US20250027068A1 (published 2025).

B1: PRT-204 (enzyme)
chain: MEVVEVWPYGQNPNGKTEILSQTEDSESLQRLRDIEDFQAEKKMQNVVYTKWLDGVTVKDHDFRKIVDGNIAYYATPLLNGRGFYDINKDFNRDSDKCAAAVAANMFHYWLDRNRDNVDRFLSQNPEKHGIIELPDGQLKLSDFLNTYESDNGYRDKSKLFDFISNNFNGPVWTDKLLDNYINGYAYNYKYGRTIEDPTKNTSKINFFKEVFNEKILTNIHSIRNQNEFSDLLSEALYTGKAIGLSYGPAGLRHSLGHIISVWGADLDADGNVVAIYVTDSDDKKLTIGDERVGLKRYKISTDDEGRARLTAYEETDNTGGQIRGLETLDTGKYAWADYFDKTEQTGTDQAEQLEHHHHHH
B2: PRT-205 (enzyme)
chain: MEVVEVWPYGQNPNGKTEILSQTEDSESLQRLRDIEDFQAEKKKEGVVYTKWLDGVDVDDHDFRKIVDGNIAYYATPLLNGRGFYDINKDFNRDSDKCAAAVAANMFHYWLDRNRDNVDRFLKQNPEKHGIIELPDGQLKLSDFLNTYESDNGYRDKSKLFDFISNNFNGPVWTDKLLDNYINGYAYNYKYGRTIEDPTKNTSKINFFKEVFNEKILTNNHSIRNYNTFSDLLSEALYTGKAIGLSYGPAGLRHSLGHIISVWGADLDADGNVVAIYVTDSDDKKLTIGDERVGLKRYKVSSDDENRLRLTAYEETHNTGGQIRGIYTLDTGKQAWADYFDKTEQTGTDQAEQLEHHHHHH
B3: PRT-207 (enzyme)
chain: MEVVEVWPYGQNPNGKTEILSQTEDSESLQRLRDIEDFQAEKKKEGVVYTKWLDGVDVDDHDFRKIVDGNIAYYATPLLNGRGFYDINKDFNRDSDKCAAAVAANMFHYWLDRNRDNVDRFLKQNPEKHGIIELPDGQLKLSDFLNTYESDNGYRDKSKLFDFISNNFNGPVWTDKLLDNYINGYAYNYKYGRTIEDPTKNTSKINFFKEVFNEKILTNNHSIRNYNTFSDLLSEALYTGKAIGLSYGPAGLRHSLGHIISVWGADLDADGNVVAIYVTDSDDKKLTIGDERVGLKRYKVSSDDENRLRLTAYEETHNTGGQIRGIWTLDTGKQAWADYFDKTEQTGTDQAEQLEHHHHHH
B4: PRT-212 (enzyme)
chain: MEVVEVWPYGQNPNGKTEILSQTEDSESLQRLRDIEDFQAEKKKEGVVYTKWLDGVDVKDHDFRKIVDGNIEYYATPLLNGRGFYDINKDFNQDSDKCAAAVAANMFHYWLDRNRDNVDRFLSQNPEKHGIIELPDGQLKLSDFLNTYESDDGYRDKSKLFDLISNNFNGPVWTDKLLDNYINGYAYNYKYGRTIEDPTKNTSKINFFKEVFNEKILTNIHSIRNQNEFSDKLSEALYTGKAIGLSYGPAGLRHSLGHIISVWGADLDEDGNVVAIYVTDSDDKKLTIGDERVGLKRYKVSTDDEGRLRLTAYEETDNTGGEIRGIWTLDTGKQAWADYFDKTEQTGTDQAEQLEHHHHHH
B5: PRT-213 (enzyme)
chain: MEVVEVWPYGQNPNGKTEILSQTEDSESLQRLRDIEDFQAEKKKEGVVYTKWLDGVTVKDHDFRKIVDGNIEYYATPLLNGRGWYDINKDFNRDSDKCAAAVAANMFHYWLDRNRDNVDRFLKQNPEKHGIIELPDGQLKLSDFLNTYESDNGYRDKSKLFDFISKNFNGPVWTDKLLDNYINGYGYNYKYGRTIEDPTKNTSKINFFKKVFNEKILTDIHSIRNQNEFSDLLSEALYTGKAIGLSYGPAGLRHSLGHIISVWGADFDEDGNVVAIYVTDSDDKKLTIGDERVGLKRYKVSTDDEGRARLTAYTETDNTGGQVRGLYTLDTGTQAWADYFDKTEQTGTDQAEQLEHHHHHH
B6: PRT-210 (enzyme)
chain: MEVVEVWPYGQNPNGKTEILSQTEDSESLQRLRDIEDFQAEKKKQNVVYTKWLDGVTVDDHDFRKITDGNTAYYATPLLNGRGFYDINKDFNRDSDKCAAAVAANMFHYWLDQNRDNVDRFLKQNPEKHGIIELPDGQLKLSDFLNTYESDDGYRDKSKLFDFISNNFNGPVWTDKLLDNYINGYAYNYKYGRTIEDPTKNTSKINFFKEVFNEKLLTNNHSIRNQNEFSDLLSEALYTGKAIGLSYGPAGLRHSLGHIISVWGADFDADGNVVAIYVTDSDDKKLTIGDERVGLKRYKISSDDEGRARLTAYTEKHNTGGQIRGLYTLDTGKQEWADYFDKTEQTGTDQAEQLEHHHHHH
B7: PRT-209 (enzyme)
chain: MEVVEVWPYGQNPNGKTEILSQTEDSESLQRLRDIEDFQAEKKKQGVVYTKWLDGVDVDDHDFRKIVDGNIAYYATPLLNGKGFYDINKDFNRDSDKCAAAVAANMFHYWLDQNRDNVDRFLRQNPEKHGIIELPDGQLKLSDFLNTYESDNGYRDKSKLFDFISNNFNGPVWTDKLLDNYINGYAYNYKYGRTIEDPTKNTSKINFFKDVFNEKILTNIHSIRNYNTFSNLLSEALYTGKAIGLSYGPAGLRHSLGHIISVWGADLDEDGNVVAIYVTDSDDKKLTIGDERVGLKRYKISTDDEGRARLTAYEENDNTGGEIRGLYTLDTGKQAWADYFDKTEQTGTDQAEQLEHHHHHH
B8: PRT-211 (enzyme)
chain: MEVVEVWPYGQNPNGKTEILSQTEDSESLQRLRDIEDFQAEKKKQGVVYTKWLDGVDVDDHDFRKIVDGNIAYYATPLLNGKGFYDINKDFNRDSDKCAAAVAANMFHYWLDQNRDNVDRFLRQNPEKHGIIELPDGQLKLSDFLNTYESDNGYRDKSKLFDFISNNFNGPVWTDKLLDNYINGYAYNYKYGRTIEDPTKNTSKINFFKDVFNEKILTNIHSIRNYNTFSNLLSEALYTGKAIGLSYGPAGLRHSLGHIISVWGADLDEDGNVVAIYVTDSDDKKLTIGDERVGLKRYKISTDDEGRARLTAYEENDNTGGEIRGLWTLDTGKQAWADYFDKTEQTGTDQAEQLEHHHHHH
B9: PRT-206 (enzyme)
chain: MEVVEVWPYGQNPNGKTEILSQTEDSESLQRLRDIEDFQAEKKKENVVYTKWLDGVTVKDHDFRKIVDGNIAYYATPLLNGRGFYDINKDFNRDSDKCAAAVAANMFHYWLDINRDNVDRFLRQNPEKHGIIELPDGQLKLSDFLNTYESDDGYRDKSKLFDFISNNFNGPVWTDKLLDNYINGYGYNYKYGRTIEDPTKNTSKINFFKEVFNEKILTDNHSIRDQNEFSDLLSEALYTGKAIGLSYGPAGLRHSLGHIISVWGADLDADGNVVAIYVTDSDDKKLTIGDERVGLKRYKISYDDEGRARLTAYEEKDNTGGQIRGLYTLDTGKQAWADYFDKTEQTGTDQAEQLEHHHHHH
B10: PRT-208 (enzyme)
chain: MEVVEVWPYGQNPNGKTEILSQTEDSESLQRLRDIEDFQAEKKKENVVYTKWLDGVTVKDHDFRKIVDGNIAYYATPLLNGRGFYDINKDFNRDSDKCAAAVAANMFHYWLDINRDNVDRFLRQNPEKHGIIELPDGQLKLSDFLNTYESDDGYRDKSKLFDFISNNFNGPVWTDKLLDNYINGYGYNYKYGRTIEDPTKNTSKINFFKEVFNEKILTDNHSIRDQNEFSDLLSEALYTGKAIGLSYGPAGLRHSLGHIISVWGADLDADGNVVAIYVTDSDDKKLTIGDERVGLKRYKISYDDEGRARLTAYEEKDNTGGQIRGLWTLDTGKQAWADYFDKTEQTGTDQAEQLEHHHHHH
B11: PRT-203 (enzyme)
chain: MEVVEVWPYGQNPNGKTEILSQTEDSESLQRLRDIEDFQAEKKKQNVVYTKWLDGVDVKDHDFRKIKDGNIEYYATPLLNGRGFYDINKDFNRDSDKCAAAVAANMFHYWLDRNRDNVDRFLRQNPEKHGIIELPDGQLKLSDFLNTYESDDGYRDKSKLFDFISNNFNGPVWTDKLLDNYINGYAYNYKYGRTIEDPTKNTSKINFFKEVFNEKILTNNHSIRNQNEFSVLLSEALYTGKAIGLSYGPAGLRHSLGHIISVWGADLDADGNVVAIYVTDSDDKKLTIGDERVGLKRYKISTDDEGRARLTAYEETHNTGGQIRGLWTLDTGKQAWADYFDKTEQTGTDQAEQLEHHHHHH
B12: PRT-214 (enzyme)
chain: MEVVEVWPYGQNPNGKTEILSQTEDSESLQRLRDIEDFQAEKKKEGVVYTKWLDGVDVDDHDFRKITDGDIEYYATPLLNGRGFYDINKDFNRDSDKCAAAVAANMFHYWLDRNRDNVDRFLKQNPEKHGIIELPDGQLKLSDFLNTYESDYGYRDKSKLFDFISNNFNGPVWTDKLLDNYINGYAYNYKYGRTIEDPTKNTSKINFFKEVFDEKLLTNNHSIRNYNEFSELLREALYTGKAIGLSYGPAGLRHSLGHIISVWGADLDEDGNVVAIYVTDSDDKKLTIGDERVGLKRYKVSSDDENRARLTAYEEKDNTGGEIRGLYTLDTGKQAWADYFDKTEQTGTDQAEQLEHHHHHH

Molecular target: pooled human IgG (human)
Assay: cell-based or functional assay
Note: test concentration or dose not given here.

Binder	Enzyme Activity Endpoint Assay (purified): Fab′2	Enzyme Activity Endpoint Assay (purified): Fc	Enzyme Activity Endpoint Assay (purified): IgG	Enzyme Activity Endpoint Assay (purified): scIgG
B1	0 ng/µL	0 ng/µL	2260 ng/µL	0 ng/µL
B2	127 ng/µL	216 ng/µL	1090 ng/µL	278 ng/µL
B3	0 ng/µL	249 ng/µL	1290 ng/µL	287 ng/µL
B4	13 ng/µL	435 ng/µL	1270 ng/µL	599 ng/µL
B5	0 ng/µL	244 ng/µL	1290 ng/µL	301 ng/µL
B6	0 ng/µL	87 ng/µL	1780 ng/µL	25 ng/µL
B7	0 ng/µL	124 ng/µL	1670 ng/µL	71 ng/µL
B8	0 ng/µL	68 ng/µL	2190 ng/µL	0 ng/µL
B9	570 ng/µL	0 ng/µL	2130 ng/µL	0 ng/µL
B10	0 ng/µL	153 ng/µL	1700 ng/µL	113 ng/µL
B11	0 ng/µL	0 ng/µL	2130 ng/µL	0 ng/µL
B12	467 ng/µL	27 ng/µL	1650 ng/µL	0 ng/µL
